Results published in the supplement of paper PMC9112550, “Optimization of the antimicrobial peptide Bac7 by deep mutational scanning” (BMC Biology, 2022).

The sequences below were run on Escherichia coli TOP10 (assay: shrunken log2 fold change of peptide-encoding DNA abundance (4.5 h post-induction vs induction); higher = less antimicrobial activity (less host growth inhibition)). Conditions: time post-induction: 4.5 h; library: site-saturation at positions 5, 18, 19, 20.
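Note: peptides expressed intracellularly from a pBAD plasmid library in pooled LB shake-flask culture, induced with 0.3% L-arabinose, DNA abundance read by NGS, three biological replicates, DESeq2 with apeglm shrinkage.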

Row | Sequence | shrunken log2 fold change
1 | RRIRLRPPRLPRPRPRPTLDPRP | 0.0159
2 | RRIRTRPPRLPRPRPRPPNEPRP | 0.207
3 | RRIRFRPPRLPRPRPRPIPIPRP | -0.648
4 | RRIRMRPPRLPRPRPRPWMDPRP | -0.0276
5 | RRIRSRPPRLPRPRPRPHGFPRP | -0.0309
6 | RRIRKRPPRLPRPRPRPSFIPRP | -0.262
7 | RRIRLRPPRLPRPRPRPWMQPRP | 0.0547
8 | RRIRGRPPRLPRPRPRPRGSPRP | 0.832
9 | RRIRHRPPRLPRPRPRPHFPPRP | -0.324
10 | RRIRNRPPRLPRPRPRPGMYPRP | -0.242
11 | RRIRNRPPRLPRPRPRPAWWPRP | 0.293
12 | RRIRNRPPRLPRPRPRPYNHPRP | -1.85
13 | RRIRPRPPRLPRPRPRPTVYPRP | -0.296
14 | RRIRQRPPRLPRPRPRPCEWPRP | 0.000996
15 | RRIRHRPPRLPRPRPRPCVGPRP | 0.116
16 | RRIRRRPPRLPRPRPRPWAAPRP | 0.403
17 | RRIRWRPPRLPRPRPRPQPEPRP | 0.139
18 | RRIRMRPPRLPRPRPRPKFKPRP | -0.0108
19 | RRIRDRPPRLPRPRPRPMQIPRP | 0.0565
20 | RRIRERPPRLPRPRPRPQWWPRP | 0.273
21 | RRIRSRPPRLPRPRPRPEYSPRP | -0.322
22 | RRIRIRPPRLPRPRPRPNAQPRP | -0.0106
23 | RRIRNRPPRLPRPRPRPMEPPRP | -0.0573
24 | RRIRGRPPRLPRPRPRPLTQPRP | 0.594
25 | RRIRERPPRLPRPRPRPGDVPRP | -0.159

Row | Sequence | shrunken log2 fold change
26 | RRIRYRPPRLPRPRPRPSYTPRP | -1.38
27 | RRIRARPPRLPRPRPRPWCQPRP | -0.031
28 | RRIRQRPPRLPRPRPRPCPPPRP | 0.00708
29 | RRIRWRPPRLPRPRPRPTDCPRP | 0.088
30 | RRIRHRPPRLPRPRPRPTWQPRP | 0.572
31 | RRIRNRPPRLPRPRPRPHFMPRP | -0.409
32 | RRIRARPPRLPRPRPRPSTPPRP | 0.235
33 | RRIRCRPPRLPRPRPRPYPVPRP | -0.441
34 | RRIRWRPPRLPRPRPRPDPRPRP | 0.751
35 | RRIRRRPPRLPRPRPRPEPVPRP | 0.367
36 | RRIRQRPPRLPRPRPRPCIEPRP | 0.015
37 | RRIRFRPPRLPRPRPRPAWIPRP | -0.106
38 | RRIRERPPRLPRPRPRPLQWPRP | 0.499
39 | RRIRPRPPRLPRPRPRPAVIPRP | -0.007
40 | RRIRKRPPRLPRPRPRPGMGPRP | 0.606
41 | RRIRDRPPRLPRPRPRPAREPRP | 1.06
42 | RRIRARPPRLPRPRPRPFPHPRP | 0.146
43 | RRIRMRPPRLPRPRPRPSWPPRP | 0.144
44 | RRIRFRPPRLPRPRPRPEPNPRP | 0.256
45 | RRIRMRPPRLPRPRPRPDEIPRP | 2.86
46 | RRIRVRPPRLPRPRPRPTNEPRP | -0.0806
47 | RRIRIRPPRLPRPRPRPWHFPRP | -0.0737
48 | RRIRCRPPRLPRPRPRPSPTPRP | 0.022
49 | RRIRARPPRLPRPRPRPMQFPRP | 0.091
50 | RRIRDRPPRLPRPRPRPVRPPRP | 1.07
